Laboratory results reported in patent CN101098892A (HOFFMANN LA ROCHE, dated 2008).

Assays:
[1] = target: 猕猴IL-13Rα1 (转染的Ba/F3细胞) (猕猴 (Cyno)); assay: FACS, transfected against parental Ba/F3 cells, negative control
[2] = target: 猕猴IL-13Rα1 (转染的Ba/F3细胞) (猕猴 (Cyno)); assay: FACS on Ba/F3 cells transfected with cynomolgus IL-13Rα1, negative control
[3] = target: 猕猴IL-13Rα1 (转染的Ba/F3细胞) (猕猴 (Cyno)); assay: FACS, transfected against parental Ba/F3 cells, secondary antibody alone
[4] = target: 猕猴IL-13Rα1 (转染的Ba/F3细胞) (猕猴 (Cyno)); assay: FACS on Ba/F3 cells transfected with cynomolgus IL-13Rα1, secondary antibody alone
[5] = target: IL-13Rα1 (人B细胞、单核细胞、TF-1细胞、HFL-1细胞、支气管平滑肌细胞上) (human) (UniProt P78552); assay: cell-based or functional assay
[6] = target: 猕猴IL-13Rα1 (转染的Ba/F3细胞) (猕猴 (Cyno)); assay: FACS, transfected against parental Ba/F3 cells
[7] = target: 猕猴IL-13Rα1 (转染的Ba/F3细胞) (猕猴 (Cyno)); assay: FACS on Ba/F3 cells transfected with cynomolgus IL-13Rα1
[8] = target: 人IL-13Rα1 (表达人IL-13Rα1和人IL-4Rα的CHO细胞) (human) (UniProt P78552); assay: displacement of 125I-IL-13 from CHO cells expressing human IL-13Rα1 and IL-4Rα
[9] = target: T1, IL-13Rα1 (人B细胞、单核细胞、TF-1细胞、HFL-1细胞、支气管平滑肌细胞上) (human, UniProt P78552 22-427); assay: cell-based or functional assay
T1 sequence (looked up): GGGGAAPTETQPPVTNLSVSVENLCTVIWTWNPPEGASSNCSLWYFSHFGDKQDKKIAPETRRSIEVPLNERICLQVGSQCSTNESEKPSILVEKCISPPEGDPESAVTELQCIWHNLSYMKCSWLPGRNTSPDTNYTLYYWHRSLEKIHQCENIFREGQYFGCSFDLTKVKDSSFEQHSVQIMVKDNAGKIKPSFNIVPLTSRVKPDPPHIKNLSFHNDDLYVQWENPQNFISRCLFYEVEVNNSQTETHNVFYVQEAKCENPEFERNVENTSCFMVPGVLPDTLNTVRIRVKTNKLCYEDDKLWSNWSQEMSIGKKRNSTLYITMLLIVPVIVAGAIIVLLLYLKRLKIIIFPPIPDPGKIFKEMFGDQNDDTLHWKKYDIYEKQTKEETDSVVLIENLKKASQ

[10] = target: 猕猴IL-13Rα1 (转染的Ba/F3细胞) (猕猴 (Cyno)); assay: FACS, transfected against parental Ba/F3 cells; remark: listed apart in the source
[11] = target: 猕猴IL-13Rα1 (转染的Ba/F3细胞) (猕猴 (Cyno)); assay: FACS on Ba/F3 cells transfected with cynomolgus IL-13Rα1, 10 μg/ml antibody
[12] = target: T2, 从hIL-13Rα1:hFc嵌合蛋白切割的hIL-13Rα1的细胞外结构域 (human, UniProt P78552 22-343); assay: SPR Biacore 3000, C1 chip, antibody captured by anti-hFcγ, cleaved hIL-13Rα1 ECD as analyte, 1:1 Langmuir
T2 construct: extracellular domain; also called 切割的hIL-13Rα1分子
T2 sequence (looked up): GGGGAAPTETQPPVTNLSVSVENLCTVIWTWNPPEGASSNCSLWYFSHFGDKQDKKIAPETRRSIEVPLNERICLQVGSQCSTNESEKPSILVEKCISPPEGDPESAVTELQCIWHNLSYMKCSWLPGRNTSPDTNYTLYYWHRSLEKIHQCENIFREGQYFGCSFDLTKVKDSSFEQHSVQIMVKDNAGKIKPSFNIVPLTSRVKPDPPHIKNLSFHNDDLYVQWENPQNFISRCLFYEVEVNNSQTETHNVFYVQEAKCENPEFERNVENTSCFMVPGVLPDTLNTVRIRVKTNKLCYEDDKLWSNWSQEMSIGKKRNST

[13] = target: 猕猴IL-13Rα1 (转染的Ba/F3细胞) (猕猴 (Cyno)); assay: FACS on Ba/F3 cells transfected with cynomolgus IL-13Rα1, 10 μg/ml antibody; remark: listed apart in the source

Work on 正常人IgG1(Nordic) (antibody) yielded a 在Cyno IL-13Rα1存在下MFI的增加倍数 [1] of 6.7 and an MFIBa/F3 Cyno IL-13Rα1 [2] of 10.2 MFI.

正常山羊IgG (antibody) showed a 在Cyno IL-13Rα1存在下MFI的增加倍数 [1] of 2.4 and an MFIBa/F3 Cyno IL-13Rα1 [2] of 5.7 MFI.

In the case of 仅抗人IgG-FITC (antibody), the 在Cyno IL-13Rα1存在下MFI的增加倍数 [3] is reported as 2.2 and the MFIBa/F3 Cyno IL-13Rα1 [4] is reported as 5.5 MFI.

For “多克隆山羊抗人IL-13Rα1抗体AF152(R&D Systems) (antibody)”, the B淋巴细胞上CD23上调的抑制 IC50 [5] was 13.6 nM, the IL-4诱导的增殖的IC50 [5] was 74.4 nM and the IL-13诱导的Stat-6磷酸化的抑制 IC50 [5] was 18.6 nM. The IL-13诱导的TF-1细胞增殖的抑制 IC50 [5] was 13.5 nM, the 人单核细胞上IL-13诱导的CD23上调的抑制 IC50 [5] was 62.9 nM and the 抑制嗜曙红粒细胞趋化因子释放 平均IC50 [5] was 11.5 nM. The 在Cyno IL-13Rα1存在下MFI的增加倍数 [6] was 18, the MFIBa/F3 Cyno IL-13Rα1 [7] was 21.2 MFI and the IC50 [8] was 84.8 nM.

B1: HuMab LC5002-002 (antibody, human IgG1, V domains shown)
VH: EVQLLESGGGLVQPGGSLRLSCAASGFTFNIYAMNWVRQAPGKGLEWVVISGRGITTYYADSVKGRFTISRDNSKNTLYLQMNSLRADDTAVYYCAKGSSSWTDFDYWGQGTLVTVSS
VL: DIQMTQSPSSLSASVGDRVTITCRASQGISRWVAWYQQKPEKAPKSLIYAASSLQSGVPSRFSGSGSGTDFTLTISSLQPEDFATYYCQQYNSYPWTFGQGTKVEIK
notes: Human IgG1 kappa antibody from a HuMab mouse hybridoma; also called hu-MAB<h-IL-13Ralpha>LC.5002-002 (DSM ACC2709)
With B1 the “IL-13诱导的TF-1细胞增殖的抑制 IC50” value [9] was 9.21 nM, the 在Cyno IL-13Rα1存在下MFI的增加倍数 [10] was 79.8 and the MFIBa/F3 Cyno IL-13Rα1 [11] was 83.7 MFI. The Kd [12] was 0.62 nM, the koff [12] was 0.00065 s⁻¹ and the kon [12] was 1.1e+06 M⁻¹ s⁻¹.

B2: HuMab LC5002-003 (antibody, V domains shown)
VH: EVQLLESGGDLIQPGGSLRLSCAASGFTFNIYAMNWVRQAPGKGLEWVSVISGRGITTYYADSVKGRFTISRDNSKNTLYLQMDSLRAEDTAVYYCAKGSSYWTDFDYWGQGTLVTVSS
VL: DIQMTQSPSSLSASVGDRVTITCRASQGISSWLAWYQQKPEKAPKSLIYAASSLQSGVPSRFSGSGSGTDFTLTISSLQPEDFATYYCQQYNSYPWTFGQGTKVEIK
B2 was tested, and the “IL-13诱导的Stat-6磷酸化的抑制 IC50” value [9] was 5.98 nM, the “IL-13诱导的TF-1细胞增殖的抑制 IC50” value [9] was 3.07 nM and the 在Cyno IL-13Rα1存在下MFI的增加倍数 [6] was 79. The MFIBa/F3 Cyno IL-13Rα1 [13] was 82.4 MFI.
